Measured values as given in US20210147523A1 (TEIJIN PHARMA, published 2021).

Key:
mouse SPNS2 [1] = biological target: T1, mouse SPNS2 (mouse, UniProt Q91VM4 1-549); experiment: Cell ELISA
T1 construct: on Flp-in 293 cells that also express human SphK1
T1 sequence: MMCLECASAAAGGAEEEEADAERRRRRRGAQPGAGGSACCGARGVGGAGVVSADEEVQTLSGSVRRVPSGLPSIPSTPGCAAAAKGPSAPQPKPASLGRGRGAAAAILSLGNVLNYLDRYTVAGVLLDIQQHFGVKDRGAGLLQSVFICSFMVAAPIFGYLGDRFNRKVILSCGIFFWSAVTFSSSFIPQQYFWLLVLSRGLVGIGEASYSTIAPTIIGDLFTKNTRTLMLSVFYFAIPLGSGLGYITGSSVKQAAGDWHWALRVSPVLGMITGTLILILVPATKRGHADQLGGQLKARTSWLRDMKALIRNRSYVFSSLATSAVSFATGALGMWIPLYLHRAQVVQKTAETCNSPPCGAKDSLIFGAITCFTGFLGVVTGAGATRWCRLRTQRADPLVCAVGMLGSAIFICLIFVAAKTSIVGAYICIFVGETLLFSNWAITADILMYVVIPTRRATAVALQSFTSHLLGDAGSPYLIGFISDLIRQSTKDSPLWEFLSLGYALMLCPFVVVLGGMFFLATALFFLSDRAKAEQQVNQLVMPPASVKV
Protocol: (§1) Human and mouse SPNS2 and human SphK1 double stable expression Flp-in 293 cells were added to a poly D lysine coat 96-well plate (Corning, 356461) in a density of 1×10⁵ cells/well and was cultivated overnight, and then the culture medium was removed. An anti-SPNS2 antibody solution was adjusted into 20 μg/mL using 0.2% FBS/3% BSA/PBS, and 0.2% FBS/3% BSA/PBS (60 μL) was added to the antibody diluted solution (20 μL) to prepare seven-step diluted solutions by four fold serial dilution. Each diluted solution of the anti-SPNS2 antibody was added in a volume of 30 μL/well, and reacted for about one hour at room temperature. The antibody solution was removed, and the residue was washed with PBS containing 0.05% Tween 20 (PBS-T) two times, and fixed for about ten minutes at room temperature using 10% buffered formalin (Mildform (Trade mark) 10NM, Wako). After washing with PBS-T one time, a 5000-fold diluted solution of anti-rat IgG antibody HRP conjugate (Southern Biotech, 3030-05) in 0.2% FBS/3% BSA/PBS was added to each well (30 μL), and reacted for about one hour at room temperature. After washing with PBS-T four times, a substrate (TMB; 3, 3′, 5, 5′-tetramethylbenzidin) was added to each well (100 μL) to initiate the reaction. After 20 minutes, 2N sulfuric acid was added to each well (100 μL), and absorbance at 450 nm and 550 nm was measured. […] Each antibody bound to human SPNS2 and mouse SPNS2.

human SPNS2 [2] = biological target: T2, human SPNS2 (human, UniProt Q8IVW8 1-549); experiment: Cell ELISA
T2 construct: S1P transporter; in Cell ELISA and S1P assays on Flp-in 293 cells that also express human SphK1; also called Spinster homolog 2; native type
T2 sequence: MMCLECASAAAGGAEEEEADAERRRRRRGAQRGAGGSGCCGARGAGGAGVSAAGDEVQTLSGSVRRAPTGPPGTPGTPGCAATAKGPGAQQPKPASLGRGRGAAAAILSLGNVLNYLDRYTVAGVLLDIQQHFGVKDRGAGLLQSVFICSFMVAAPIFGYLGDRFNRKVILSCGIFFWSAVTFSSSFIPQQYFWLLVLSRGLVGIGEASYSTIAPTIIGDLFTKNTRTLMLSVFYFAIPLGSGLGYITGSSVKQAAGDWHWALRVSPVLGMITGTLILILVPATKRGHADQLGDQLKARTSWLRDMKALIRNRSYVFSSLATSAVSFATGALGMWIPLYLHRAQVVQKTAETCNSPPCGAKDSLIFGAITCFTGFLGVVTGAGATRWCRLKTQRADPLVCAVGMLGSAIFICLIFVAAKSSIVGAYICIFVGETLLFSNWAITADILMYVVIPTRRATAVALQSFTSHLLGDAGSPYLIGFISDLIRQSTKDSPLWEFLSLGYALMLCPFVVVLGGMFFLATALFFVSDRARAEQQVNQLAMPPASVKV
Protocol: as §1

mouse SPNS2 [3] = biological target: T1, mouse SPNS2; experiment: cell-based or functional assay
human SPNS2 [4] = biological target: T2, human SPNS2; experiment: cell-based or functional assay
[5] = biological target: T3, Mutant 3 of human SPNS2 (FLAG tag inserted in extracellular loop 7) (human, UniProt Q8IVW8 1-549); experiment: flow cytometry, FLAG-insertion mutant
T3 construct: on HEK293 cells; also called extracellular loop 7 mutant
T3 sequence: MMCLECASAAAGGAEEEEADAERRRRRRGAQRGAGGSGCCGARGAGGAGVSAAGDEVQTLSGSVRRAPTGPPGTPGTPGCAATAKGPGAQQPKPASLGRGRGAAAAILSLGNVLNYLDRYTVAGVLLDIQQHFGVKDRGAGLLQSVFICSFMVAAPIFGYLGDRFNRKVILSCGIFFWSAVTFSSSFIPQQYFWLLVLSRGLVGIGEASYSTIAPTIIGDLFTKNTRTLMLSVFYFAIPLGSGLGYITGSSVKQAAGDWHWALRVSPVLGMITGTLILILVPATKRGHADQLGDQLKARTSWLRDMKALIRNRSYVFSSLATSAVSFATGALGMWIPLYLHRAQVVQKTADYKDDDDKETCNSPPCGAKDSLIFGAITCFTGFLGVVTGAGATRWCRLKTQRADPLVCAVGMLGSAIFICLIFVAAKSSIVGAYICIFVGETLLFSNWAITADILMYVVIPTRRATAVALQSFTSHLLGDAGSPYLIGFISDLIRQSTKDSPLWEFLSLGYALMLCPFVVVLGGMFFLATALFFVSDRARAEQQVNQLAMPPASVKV
Protocol: After the lipofection, the HEK 293 cells cultivated overnight were recovered from the culture dishes, and reacted with a cell staining buffer (BioLegend, 420201) containing an anti-FLAG antibody (Sigma-Aldrich, F1804) and an anti-SPNS2 antibody each in a volume of 20 μg/mL for 30 minutes at room temperature. After washing with a cell staining buffer one time, the anti-FLAG antibody was detected with an anti-mouse IgG-Alexa 647 conjugate antibody, and the anti-SPNS2 antibody was detected with an anti-rat IgG-FITC conjugate antibody with flow cytometer BD LSR Fortessa (Becton Dickinson). The binding ability to each mutant was evaluated with the ratio of the FITC-positive cell rate to the Alexa 647-positive cell rate. In Table 7, symbol (+) indicates a ratio of less than 0.1, symbol (±) indicates a ratio of 0.1 or more and less than 0.5, and symbol (−) indicate a ratio of 0.5 or more.

B1: 37-0511F (antibody, IgG2b, V domains shown)
VH: EVHLQQSGAALVRPRASVKLSCKVSGDSISRYYVHFVKQRPGQGLEWIGRIDPEDDTTKYSEKFKNRATLTADASSDTASLILSGLTSDDTATYFCSTLTGLDYWGQGVMVTVSS
VL: DIQMTQSPPVLSTSVGDRVTLRCKPSQNVHSKLDWYQQKHGEAPKLLIYYTHNLQTGIPSRFSGSGSGTDYTLTISSLQPEDVATYYCFQYYSGWTFGGGTKLEMKR
Mouse SPNS2 [1]
  Emax: 1.29 absorbance
  pEC50: 8.01 pEC50 (M)
Human SPNS2 [2]
  Emax: 1.35 absorbance
  pEC50: 8.2 pEC50 (M)
Mouse SPNS2 [3]
  pIC50, S1P transport inhibition (LC-MS/MS of S1P): 7.8 pIC50 (M)
Human SPNS2 [4]
  pIC50, S1P transport inhibition (LC-MS/MS of S1P): 7.7 pIC50 (M)

B2: 53-0707E (antibody, IgG2b, V domains shown)
VH: EVQLQQSGAELVRPRTSVKLSCKVSGDSITRYYVHFVKQRPGQGLEWIGRIDPEDDTTKYSEKFKKKATLTADASSNTAYLIFSGLTSEDTATYFCSTLTGLDYWGQGVMVTVSS
VL: DIQMTQSPPVLSTSVGDRVTLRCKASQNVHSKLDWYQQKHGEAPKLLIYYTHNLQTGIPSRFSGSGSGTDYTLTISSLQPEDVATYYCFQYYSGWTFGGGTKLEMKR
Mouse SPNS2 [1]
  Emax: 1.43 absorbance
  pEC50: 7.82 pEC50 (M)
Human SPNS2 [2]
  Emax: 1.62 absorbance
  pEC50: 7.87 pEC50 (M)
Mouse SPNS2 [3]
  pIC50, S1P transport inhibition (LC-MS/MS of S1P): 7.6 pIC50 (M)
Human SPNS2 [4]
  pIC50, S1P transport inhibition (LC-MS/MS of S1P): 7.3 pIC50 (M)

B3: 82-1109A (antibody, IgG2b, V domains shown)
VH: QVQLQQSGVELAKPGSSVKISCKASGNTFTSNYITWIKQTPGQGLEYIGYINTGSGKTYYNEKFKGKATLTADKSSSTAFMQLSSLTPDDSAVYFCASLTGVDYFDDWGQGVMVTVSS
VL: DDIVLTQSPALAPSLGQRATISCRASQSVRMSGYNLMHWYQQKPGQQPKLLIYDASKLASGIPARFSGSGSGTDFTLTIDPVQSDDIATYYCQQSKDDPYTFGAGTKLELRR
Mouse SPNS2 [1]
  pEC50: 7.83 pEC50 (M)
Human SPNS2 [2]
  pEC50: 7.83 pEC50 (M)
[5]
  FITC+/Alexa 647+ cell rate ratio: < 0.1 ratio

B4: 50-0704C (antibody, IgG2b, V domains shown)
VH: EVQLVGSGGGLVQPGRSMKLSCEASGFTFSNHYMAWVRQAPTKGLEWVATISTGGGNTYYRDSVKGRFTISRDNARSTLSLQMDSLRSEDTATYYCARQDYSNYMGGFAYWGQGTLVTVSS
VL: QFVLTQPNSVSTNLGSTVKLSCTRSIGNIGNNYVNWYKQYEGRSPTTMIYRDDERPDGVPDRFSGSIDRSSNSALLTINSVQTEDEADYFCQSFSSGIFIFGGGTKLTVL
Mouse SPNS2 [1]
  Emax: 1.9 absorbance
  pEC50: 7.75 pEC50 (M)
Human SPNS2 [2]
  Emax: 1.82 absorbance
  pEC50: 8.15 pEC50 (M)
[5]
  FITC+/Alexa 647+ cell rate ratio: ≥ 0.5 ratio
Mouse SPNS2 [3]
  pIC50, S1P transport inhibition (LC-MS/MS of S1P): 7.8 pIC50 (M)
Human SPNS2 [4]
  pIC50, S1P transport inhibition (LC-MS/MS of S1P): 7.6 pIC50 (M)

B5: 18-0211B (antibody, IgG2b, V domains shown)
VH: AVQLVGSGGGLVQPGRSMKLSCEASGFTFSNHYMAWVRQAPTRGLEWVATISTGGGNTYYRDSVKGRFTISRDNTRSTLSLQMDSLRSEDTATYYCTRQDYTNYMGGFAYWGQGTLVTVSS
VL: QFVLTQPNSVSTNLGSTVKLSCTRSIGNIGNNYVNWYKQYEGRSPTTLIYRDDERPDGVPDRFSGSIDRSSNSALLTINSVQTEDGADYFCQSFSSGIFIFGGGTTLTVL
Mouse SPNS2 [1]
  Emax: 1.61 absorbance
  pEC50: 8.37 pEC50 (M)
Human SPNS2 [2]
  Emax: 1.72 absorbance
  pEC50: 8.59 pEC50 (M)
[5]
  FITC+/Alexa 647+ cell rate ratio: ≥ 0.5 ratio
Mouse SPNS2 [3]
  pIC50, S1P transport inhibition (LC-MS/MS of S1P): 8.1 pIC50 (M)
Human SPNS2 [4]
  pIC50, S1P transport inhibition (LC-MS/MS of S1P): 7.9 pIC50 (M)

B6: 89-1207D (antibody, IgG2b, V domains shown)
VH: EVQLVGSGGGLVQPGRSMKLSCEASGFTFSNHYMAWVRQAPTKGLEWVATISTGGGNTYYRDSVKGRFTISRDNARSILSLQMDSLRSEDTATYYCARQDYSNYMGGFAYWGQGTLVTVSS
VL: QFVLTQPNSVSTNLGSTVKLSCTRSIGNIGNNYVNWYKQYEGRSPTTMIYRDDERPDGVPDRFSGSIDRSSNSALLTINNVQTEDEADYFCQSFSSGMFIFGGGTKLTVL
Mouse SPNS2 [1]
  Emax: 1.85 absorbance
  pEC50: 7.72 pEC50 (M)
Human SPNS2 [2]
  Emax: 2.03 absorbance
  pEC50: 7.97 pEC50 (M)
[5]
  FITC+/Alexa 647+ cell rate ratio: ≥ 0.5 ratio
Mouse SPNS2 [3]
  pIC50, S1P transport inhibition (LC-MS/MS of S1P): 7.8 pIC50 (M)
Human SPNS2 [4]
  pIC50, S1P transport inhibition (LC-MS/MS of S1P): 7.6 pIC50 (M)

B7: 64-0807A (antibody, IgG2b, V domains shown)
VH: EVQVVESGGGLVQPGRSMKLSCAALGFTFRDYYMAWVRQTPTKGLEWVAAISTGGGNTYYRDSVKGRFTISRDNAKSTLYLQMDSLRSDDTATYYCARNPYGNYFDYWGQGVMVTVSS
VL: QFVLSQPNSVSTNLGSTVKLSCKRSTGNIGSNYVHWYQRHEGRSPTTLIYRDDKRPNGVPDRFSGSIDRSSNSALLTINNVQTEDEADYFCQSYSGGMYLFGGGTKLTVL
Mouse SPNS2 [1]
  Emax: 1.88 absorbance
  pEC50: 7.83 pEC50 (M)
Human SPNS2 [2]
  Emax: 1.83 absorbance
  pEC50: 8.07 pEC50 (M)
[5]
  FITC+/Alexa 647+ cell rate ratio: ≥ 0.5 ratio
Mouse SPNS2 [3]
  pIC50, S1P transport inhibition (LC-MS/MS of S1P): 7.7 pIC50 (M)
Human SPNS2 [4]
  pIC50, S1P transport inhibition (LC-MS/MS of S1P): 7.5 pIC50 (M)

B8: 84-1111F (antibody, IgG2b, V domains shown)
VH: EVQVVESGGGLVQPGRSMKLSCAALGFTFRDYYMAWVRQTPTKGLEWVAAISTGGGNTYYRDSVKGRFTISRDNAKSTLYLKMDSLRSDDTATYYCARNPYGNYFDYWGQGVMVTVSS
VL: QFVLSQPNSVSTNLGSTVKLSCKRSTGNIGSNYVHWYQRHEGRSPTTMIYRDDKRPNGVPDRFSGSIDRSSNSALLTINNVQTEDEADYFCQSYSGGMYLFGGGTTLTVL
Mouse SPNS2 [1]
  Emax: 1.55 absorbance
  pEC50: 8.65 pEC50 (M)
Human SPNS2 [2]
  Emax: 1.68 absorbance
  pEC50: 8.75 pEC50 (M)
[5]
  FITC+/Alexa 647+ cell rate ratio: ≥ 0.5 ratio
Mouse SPNS2 [3]
  pIC50, S1P transport inhibition (LC-MS/MS of S1P): 8.3 pIC50 (M)
Human SPNS2 [4]
  pIC50, S1P transport inhibition (LC-MS/MS of S1P): 8.1 pIC50 (M)
